# T1: recombinant human NKp30 extracellular domain, his-tagged (human, UniProt O14931 19-135)
# T1 construct: BLI used human NKp30 bought from Abcam (his-tagged ECD); also called rh NKp30 ECD; human NKp30 (Abcam); not shown: his tag
# T1 sequence: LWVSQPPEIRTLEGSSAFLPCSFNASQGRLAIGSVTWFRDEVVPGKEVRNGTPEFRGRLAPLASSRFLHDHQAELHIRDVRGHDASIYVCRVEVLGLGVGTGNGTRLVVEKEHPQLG
# Key:
# [1] = target: NKp30 on human NK cells (human) (UniProt O14931); assay: cell-based or functional assay
# [2] = target: recombinant human NKp30 extracellular domain, his-tagged (human) (UniProt O14931); assay: BLI, SEEDbody on anti-human Fc sensors, soluble NKp30, 1:1 fit
# [3] = target: T1, recombinant human NKp30 extracellular …; assay: BLI as in Example 1
# [4] = target: T1, recombinant human NKp30 extracellular …; assay: BLI as in Example 1, maximum binding capacity
Binder,"EC50 (nM), MNC based killing of A431 cells, E:T 80:1 [1] [nM]","Max. Killing (% Lysis), MNC based killing of A431 cells, E:T 80:1 [1] [% Lysis]",Kd [2] [nM],koff [2] [s⁻¹],kon [2] [M⁻¹ s⁻¹],"Max. IFNγ release (pg/ml), NK cells with A431 cells [1] [pg/mL]","Max. TNFα release (pg/ml), NK cells with A431 cells [1] [pg/mL]",Kd [3] [nM],Emax (nm) [4] [nm]
"VHH10 SEEDbody eff- (bispecific antibody, part only; not given: silenced SEED Fc and cetuximab Fab, V domains shown, not shown: another chain or arm of the molecule; a dimerising Fc or GST; small tags and cut ends) VHH: DVQLQESGGGSVQAGGSLRLSCAASGRTFSSNFMGWFRQAPNKDREFVAAIHWSGGSRAYADSVKGRFTISRDNTKDTVYLLVNSLKLEDTAVYYCAAEISWQTTGWTNLGSWGQGTQVTVSS",0.0146,51,0.253,8.75e-05,346000,–,–,–,–
"VHH12 SEEDbody eff- (bispecific antibody, part only; not given: silenced SEED Fc and cetuximab Fab, V domains shown, not shown: another chain or arm of the molecule; a dimerising Fc or GST; small tags and cut ends) VHH: DVQLQESGGGLVQAGGSLRLSCAASGRTFSSDFMGWFRQAPGKEREFVAAIHWSGGSRSYADSVKGRFTISRDNAKDTVYLLMNSLKLEDTAVYYCAAEIRWQTTGWANLGSWGQGTQVTVSS",0.00207,49,0.982,0.000898,914000,–,–,–,–
"VHH14 SEEDbody eff- (bispecific antibody, part only; not given: silenced SEED Fc and cetuximab Fab, V domains shown, not shown: another chain or arm of the molecule; a dimerising Fc or GST; small tags and cut ends) VHH: DVQLQESGGGLVQPGGSLRLSCEASGVTFNFYSMTWYRQAPGKERELVADITSEGRTEYAHSVKGRFIISRDDFGTMVYLQMNSLKPEDTAVYYCYTGGSWGQGTQVTVSS",0.00144,51,0.31,0.000144,464000,–,–,–,–
"VHH6 SEEDbody eff- (bispecific antibody, part only; not given: silenced SEED Fc and cetuximab Fab, V domains shown, not shown: another chain or arm of the molecule; a dimerising Fc or GST; small tags and cut ends) VHH: DVQLQESGGGLVQTGGSLRLSCAASGLPFSKYAIAWFRQAPGKESEFLVVVSWSGDKFYQDNMKGRCTISRDNAKNTAYLQINSLQPEDTAVYYCAASGSYPVTDRYFYNFWGQGTQVTVSS",1.43,42,292,0.129,442000,–,–,–,–
"VHH7 SEEDbody eff- (bispecific antibody, part only; not given: silenced SEED Fc and cetuximab Fab, V domains shown, not shown: another chain or arm of the molecule; a dimerising Fc or GST; small tags and cut ends) VHH: DVQLQESGGGLAQPGGSLRLSCAASGFTFSSYDMGWYRQVPGKECELVAAIFSAGGSTIYADSVKGRFTISRDNAKNTVFLQMNSLKPEDTAVYYCNKAPPFTTIQPTCVMIDTQLGAWGQGTQVTVSS",0.0433,49,52.4,0.00352,67200,–,–,–,–
"VHH8 SEEDbody eff- (bispecific antibody, part only; not given: silenced SEED Fc and cetuximab Fab, V domains shown, not shown: another chain or arm of the molecule; a dimerising Fc or GST; small tags and cut ends) VHH: DVQLQESGGGLAQPGGSLRLSCAASGFTFSSYDMGWYRQAPGKECELVAAIFSADGSTIYADSVKGRFTISSDNAKNTVFLQMNSLKPEDTAVYYCNKAPPFTTIQPMCVMIDTQLGAWGQGTQVTVSS",0.00899,50,0.322,0.000134,416000,595,109,–,–
"VHH5 SEEDbody eff- (bispecific antibody, part only; not given: silenced SEED Fc and cetuximab Fab, V domains shown, not shown: another chain or arm of the molecule; a dimerising Fc or GST; small tags and cut ends) VHH: DVQLQESGGGLVQPGESLRLSCLVSGVTYHFYDITWFRQAPGLEREGVSCISYASGSTKFADSVKGRFTISRDNAKNAVYLQMNSLKPEDTAVYFCATQGSGSCSDFMSADSVLSWGQGTQVTVSS",0.00286,56,0.289,0.000186,643000,635,119,–,–
"VHH3 SEEDbody eff- (bispecific antibody, part only; not given: silenced SEED Fc and cetuximab Fab, V domains shown, not shown: another chain or arm of the molecule; a dimerising Fc or GST; small tags and cut ends) VHH: DVQLQESGGGLVQPGESLKLSCLVSGVTYHFYDITWFRQAPGLEREGVSCISYASGTTKFADSVKGRFTISRDNAKNAVYLEMNSLKPEDTAVYFCATQGSGSCSDFMSAGSVLSWGQGTQVTVSS",0.00284,53,0.281,0.00017,604000,–,–,–,–
"VHH4 SEEDbody eff- (bispecific antibody, part only; not given: silenced SEED Fc and cetuximab Fab, V domains shown, not shown: another chain or arm of the molecule; a dimerising Fc or GST; small tags and cut ends) VHH: DVQLQESGGGLVQPGESLRLSCLVSGVTYHFYDITWFRQAPGLEREGVSCISYASGSTKFADSVKGRFTISRDNAKNAVYLQMNSLKPEDTAVYFCAMQGSGSCSDFMSADSVLSWGQGTQVTVSS",0.00592,55,2.57,0.000218,84800,560,129,–,–
"VHH9 SEEDbody eff- (bispecific antibody, part only; not given: silenced SEED Fc and cetuximab Fab, V domains shown, not shown: another chain or arm of the molecule; a dimerising Fc or GST) VHH: DVQLQESGGGLVQAGGSLRLSCAASGRGGASYAMGWFRQAPGKEREFVAAISWTGDTTYNVDSVKGRFTISSDNAKNPVYLDMSSLKPEDTAVYYCAAAHWTRVVAKGAMADEKKYEYWGQGTQVTVSS",0.0161,53,4.99,0.00187,376000,–,–,–,–
"VHH16 SEEDbody eff- (bispecific antibody, part only; not given: silenced SEED Fc and cetuximab Fab, V domains shown, not shown: another chain or arm of the molecule; a dimerising Fc or GST; small tags and cut ends) VHH: DVQLQESGGGLVQPGGSLRLSCTASGSIFSSLTMAWWRQAPGKQRELVAGITTDGSTDYADSVKGRFTISRDNAKNTVYLQMDSLKPEDTAVYYCNKSPYYDPTDYDSWGQGTQVTVSS",0.00128,50,0.139,9.28e-05,666000,515,114,–,–
"VHH11 SEEDbody eff- (bispecific antibody, part only; not given: silenced SEED Fc and cetuximab Fab, V domains shown, not shown: another chain or arm of the molecule; a dimerising Fc or GST; small tags and cut ends) VHH: DVQLQESGGGLVQAGGSLRLSCAASGRTFSSDFMGWFRQAPGKEREFVAAIHWSGGSTSYADSVKGRFTISRDNAKDTVYLLMNSLKLEDTAVYYCAAEIRWLTTGWANLGSWGQGTQVTVSS",0.0111,50,1.02,0.000415,405000,–,–,–,–
"VHH13 SEEDbody eff- (bispecific antibody, part only; not given: silenced SEED Fc and cetuximab Fab, V domains shown, not shown: another chain or arm of the molecule; a dimerising Fc or GST; small tags and cut ends) VHH: DVQLQESGGGLAQPGGPLRLSCAASGRTFTSDFMGWFRQAPGKEREFVAAIHWSGGSRSYADSVKGRFTISRDNAKDTVYLLMNSLKLEDTAVYYCAAEIRWQTAGWVNLGSWGQGTQVTVSS",0.00241,51,0.211,0.000162,766000,–,–,–,–
"VHH2 (parental, as tested in Example 9) (VHH, expressed and measured by BLI 'as described in Experiment 1' (there: bispecific SEEDbody on anti-human Fc sensors)) VHH: DVQLQESGGGLVQAGGSLRLSCAVSGQTWTNYHIGWFRQAPGKARESVASIEWGGRGTYATDSVKGRFTISRDNAKNTVYLQMNSLKPEDTAVYYCAAQSSSRSPLESNYDYWGQGTQVTVSS",–,–,–,–,–,–,–,2.88,0.17
"VHH2.2 (humanized) (VHH, expressed and measured by BLI 'as described in Experiment 1' (there: bispecific SEEDbody on anti-human Fc sensors)) VHH: EVQLVESGGGVVQPGGSLRLSCAVSGQTWTNYHIGWFRQAPGKARESVASIEWGGRGTYATDSVKGRFTISRDNAKNTVYLQMNSLRAEDTAVYYCAAQSSSRSPLESNYDYWGQGTLVTVSS",–,–,–,–,–,–,–,2.1,0.15
"VHH2.11 (humanized) (VHH, expressed and measured by BLI 'as described in Experiment 1' (there: bispecific SEEDbody on anti-human Fc sensors)) VHH: EVQLVESGGGVVQPGGSLRLSCAASGQTWTNYHIGWFRQAPGKGLESVASIEWGGRGTYATDSVKGRFTISRDNAKNTVYLQMNSLRAEDTAVYYCAAQSSSRSPLESNYDYWGQGTLVTVSS",–,–,–,–,–,–,–,4.7,0.16
"VHH2.8 (humanized) (VHH, expressed and measured by BLI 'as described in Experiment 1' (there: bispecific SEEDbody on anti-human Fc sensors)) VHH: EVQLVESGGGVVQPGGSLRLSCAVSGQTWTNYHIGWFRQAPGKGLEWVASIEWGGRGTYATDSVKGRFTISRDNAKNTLYLQMNSLRAEDTAVYYCAAQSSSRSPLESNYDYWGQGTLVTVSS",–,–,–,–,–,–,–,6.61,0.1
"VHH2.7 (humanized) (VHH, expressed and measured by BLI 'as described in Experiment 1' (there: bispecific SEEDbody on anti-human Fc sensors)) VHH: EVQLVESGGGVVQPGGSLRLSCAVSGQTWTNYHIGWFRQAPGKGLESVASIEWGGRGTYATDSVKGRFTISRDNAKNTLYLQMNSLRAEDTAVYYCAAQSSSRSPLESNYDYWGQGTLVTVSS",–,–,–,–,–,–,–,9.76,0.1
"VHH2.6 (humanized) (VHH, expressed and measured by BLI 'as described in Experiment 1' (there: bispecific SEEDbody on anti-human Fc sensors)) VHH: EVQLVESGGGVVQPGGSLRLSCAVSGQTWTNYHIGWVRQAPGKGLESVASIEWGGRGTYATDSVKGRFTISRDNAKNTVYLQMNSLRAEDTAVYYCAAQSSSRSPLESNYDYWGQGTLVTVSS",–,–,–,–,–,–,–,27.6,0.07
"VHH2.3 (humanized) (VHH, expressed and measured by BLI 'as described in Experiment 1' (there: bispecific SEEDbody on anti-human Fc sensors)) VHH: EVQLVESGGGVVQPGGSLRLSCAVSGQTWTNYHIGWFRQAPGKARESVASIEWGGRGTYATDSVKGRFTISRDNAKNTLYLQMNSLRAEDTAVYYCAAQSSSRSPLESNYDYWGQGTLVTVSS",–,–,–,–,–,–,–,9.97,0.13
"VHH2.1 (humanized) (VHH, expressed and measured by BLI 'as described in Experiment 1' (there: bispecific SEEDbody on anti-human Fc sensors)) VHH: EVQLVESGGGVVQAGGSLRLSCAVSGQTWTNYHIGWFRQAPGKARESVASIEWGGRGTYATDSVKGRFTISRDNAKNTVYLQMNSLRAEDTAVYYCAAQSSSRSPLESNYDYWGQGTLVTVSS",–,–,–,–,–,–,–,2.91,0.18
"VHH2.5 (humanized) (VHH, expressed and measured by BLI 'as described in Experiment 1' (there: bispecific SEEDbody on anti-human Fc sensors)) VHH: EVQLVESGGGVVQPGGSLRLSCAVSGQTWTNYHIGWFRQAPGKGLESVASIEWGGRGTYATDSVKGRFTISRDNAKNTVYLQMNSLRAEDTAVYYCAAQSSSRSPLESNYDYWGQGTLVTVSS",–,–,–,–,–,–,–,2.92,0.11
"VHH15 SEEDbody eff- (bispecific antibody, part only; not given: silenced SEED Fc and cetuximab Fab, V domains shown, not shown: another chain or arm of the molecule; a dimerising Fc or GST; small tags and cut ends) VHH: DVQLQESGGGLVQAGGSLRLSCAVSGSTFRLNVMGWYRQAPGKLRDLVAGITADGGVTNYADSVKGRFIISRDNAKNTVYLQMNSLKPEDTAIYYCNTAPANWGSWGQGTQVTVSS",0.0013,50,< 0.001,< 1e-07,440000,–,–,–,–
